Measurements reported in the supplement of paper PMC7877785.
± gives the uncertainty stated by the source.

Assay: self-splicing fitness, log relative to wild type (ln ratio); higher = more splicing; Tetrahymena group I intron in knt gene, E. coli kanamycin selection, DiMSum; sequences stand for … in CUCUCU…GGAGGGAAAAGUUAUCAGGCAUGCACCUGGUAGCUAGUCUUUAAACCAAUAGAUUGCAUCGGUUUAAAAGGCAAGACCGUCAAAUUGCGGGAAAGGGGUCAACAGCCGUUCAGUACCAAGUCUCAGGGGAAACUUUGAGAUGGCCUUGCAAAGGGUAUGGUAAUAAGCUGACGGACAUGGUCCUAACCACGCAGCCAAGUCCUAAGUCAACAGAUCUUCUGUUGAUAUGGAUGCAGUUCACAGACUAAAUGUCGGUCGGGGAAGAUGUAUUCUUCUCAUAAGAUAUAGUCGGACCUCUCCUUAAUGGGAGCUAGCGGAUGAAGUGAUGCAACACUGGAGCCGCUGGGAACUAAUUUGUAUGCGAAAGUAUAUUGAUUAGUUUUGGAGUACUCGUGGUCG
Summary of the method: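 Fitness was computed with DiMSum as the error-weighted combination of replicate fold changes, kanamycin versus none, each normalised to wild type. The library randomised all eight intron nucleotides of the P1ex region, with the intron placed in the knt kanamycin-resistance gene on pET-22b(+) in E. coli BL21(DE3). Six replicate transformations were grown overnight at 37°C or 30°C on LB agar with or without 25 μg/mL kanamycin, plus 100 μg/mL carbenicillin, 50 μM IPTG and 0.2% rhamnose. Pooled colonies were amplicon-sequenced on an Illumina HiSeq 2500.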

Row | Sequence | self-splicing fitness (ln) (30 °C) | self-splicing fitness (ln) (37 °C)
1 | ACCAAGCAAUAUUACGAUAA | -3.07 ± 0.18 | -1.46 ± 0.16
2 | CUAUAGCAAUAUUACGGAUC | -3.75 ± 0.4 | -2.31 ± 0.25
3 | CGCUAGCAAUAUUACGAUCC | -2.01 ± 0.37 | -1.74 ± 0.42
4 | UACCAGCAAUAUUACGUCCC | -1.47 ± 0.35 | -1.38 ± 0.38
5 | AUCAAGCAAUAUUACGGUGC | -3.24 ± 0.17 | -3.12 ± 0.24
6 | AAGGAGCAAUAUUACGGUAU | -3.5 ± 0.26 | -2.06 ± 0.31
7 | GCUAAGCAAUAUUACGUAUC | -0.952 ± 0.082 | -0.277 ± 0.1
8 | UCGCAGCAAUAUUACGCAAA | -2.05 ± 0.13 | -1.53 ± 0.11
9 | CUGAAGCAAUAUUACGGGUC | -3.92 ± 0.4 | 
10 | AUGUAGCAAUAUUACGCGAC | -1.38 ± 0.17 | -1.76 ± 0.36
11 | GCUAAGCAAUAUUACGAGCC | -3.9 ± 0.2 | -2.33 ± 0.33
12 | CACAAGCAAUAUUACGAGUC | -3.71 ± 0.17 | -2.26 ± 0.16
13 | ACCGAGCAAUAUUACGCACU | -1.62 ± 0.14 | -0.517 ± 0.13
14 | UCCCAGCAAUAUUACGAGGA | -2.18 ± 0.11 | -1.36 ± 0.12
15 | AACGAGCAAUAUUACGUGAC |  | -2.76 ± 0.23
16 | UACCAGCAAUAUUACGGCCA | -0.369 ± 0.073 | -0.0799 ± 0.097
17 | UUGUAGCAAUAUUACGAUAC | -1.91 ± 0.22 | 
18 | UUCUAGCAAUAUUACGAAUC |  | -1.98 ± 0.25
19 | UAGCAGCAAUAUUACGCAGG | -3.01 ± 0.25 | -2.14 ± 0.25
20 | UGCUAGCAAUAUUACGAGGC | -2.55 ± 0.19 | -1.89 ± 0.34
21 | UCGUAGCAAUAUUACGUCGA | -2.49 ± 0.17 | -1.91 ± 0.15
22 | CGGGAGCAAUAUUACGGGGC |  | -2.14 ± 0.43
23 | GCACAGCAAUAUUACGGGCC |  | -1.7 ± 0.21
24 | UUUCAGCAAUAUUACGCGCG | -0.107 ± 0.18 | -1.01 ± 0.22
25 | UCAAAGCAAUAUUACGCGCC | -2.36 ± 0.24 | -1.24 ± 0.28

Row | Sequence | self-splicing fitness (ln) (30 °C) | self-splicing fitness (ln) (37 °C)
26 | GGAUAGCAAUAUUACGGUCU | -3.86 ± 0.4 | -1.99 ± 0.18
27 | GUUAAGCAAUAUUACGUGAG | -0.109 ± 0.052 | -0.0542 ± 0.098
28 | CUCGAGCAAUAUUACGCUUC | -3.71 ± 0.3 | -2.24 ± 0.29
29 | AAUAAGCAAUAUUACGAGUU | -1.32 ± 0.087 | -1.1 ± 0.1
30 | UGCCAGCAAUAUUACGGUGU | -2.53 ± 0.11 | -2.7 ± 0.19
31 | UCUAAGCAAUAUUACGUACC |  | -1.04 ± 0.47
32 | ACCUAGCAAUAUUACGACGA | -0.405 ± 0.11 | -0.784 ± 0.093
33 | UUGGAGCAAUAUUACGGACU | -3.18 ± 0.34 | -2.65 ± 0.35
34 | GCACAGCAAUAUUACGUAAA | -0.808 ± 0.057 | 0.219 ± 0.077
35 | GAUAAGCAAUAUUACGAAAA | -2.98 ± 0.17 | -2.47 ± 0.2
36 | AGAUAGCAAUAUUACGUUUC | -3.56 ± 0.29 | 
37 | GUCGAGCAAUAUUACGGGAA | -2.39 ± 0.34 | -1.63 ± 0.37
38 | CGGGAGCAAUAUUACGCCUG | -2.39 ± 0.28 | 
39 | CGCAAGCAAUAUUACGACCA | -0.724 ± 0.1 | -0.453 ± 0.12
40 | CACCAGCAAUAUUACGACAC | -3.07 ± 0.27 | -1.36 ± 0.22
41 | CAAAAGCAAUAUUACGCCUA | -2.75 ± 0.27 | -1.51 ± 0.17
42 | GGGAAGCAAUAUUACGUCGG |  | -0.827 ± 0.18
43 | UCAAAGCAAUAUUACGCAAA | -2.5 ± 0.23 | -2.19 ± 0.31
44 | ACCCAGCAAUAUUACGCCGC | -3.12 ± 0.18 | -2.37 ± 0.2
45 | GGAUAGCAAUAUUACGGCCU | -2.24 ± 0.29 | -0.0501 ± 0.17
46 | CGCCAGCAAUAUUACGGCUG | -4.51 ± 0.36 | -1.67 ± 0.19
47 | UACAAGCAAUAUUACGUUUC | -2.55 ± 0.2 | -1.72 ± 0.2
48 | UUUGAGCAAUAUUACGUCUC | -3.52 ± 0.29 | -2.7 ± 0.33
49 | AAGAAGCAAUAUUACGGACU | 0.093 ± 0.073 | -0.443 ± 0.083
50 | CGCAAGCAAUAUUACGUUCU | -1.53 ± 0.076 | -1.33 ± 0.087

Row | Sequence | self-splicing fitness (ln) (30 °C) | self-splicing fitness (ln) (37 °C)
51 | CGCCAGCAAUAUUACGUUUA | -3.18 ± 0.15 | -2.83 ± 0.17
52 | UCAAAGCAAUAUUACGAGAG | -3.08 ± 0.2 | -2.21 ± 0.21
53 | GAUUAGCAAUAUUACGAUAU | -1.19 ± 0.11 | -0.869 ± 0.13
54 | GAUGAGCAAUAUUACGUAUG |  | -1.59 ± 0.14
55 | GUACAGCAAUAUUACGAAAG | -3.47 ± 0.1 | -1.04 ± 0.092
56 | UCCAAGCAAUAUUACGAAAU | -2.02 ± 0.2 | -1.98 ± 0.21
57 | AAUAAGCAAUAUUACGAUGG | -2.53 ± 0.14 | -0.861 ± 0.12
58 | ACGCAGCAAUAUUACGAUUU | -1.01 ± 0.081 | -0.413 ± 0.1
59 | CUGAAGCAAUAUUACGGUUA | -4.2 ± 0.35 | -2.52 ± 0.28
60 | GCCUAGCAAUAUUACGGCAU | -3.27 ± 0.27 | -0.94 ± 0.13
61 | ACACAGCAAUAUUACGGUUU | -1.05 ± 0.04 | -0.00178 ± 0.06
62 | UGCGAGCAAUAUUACGCUGA | -2.35 ± 0.27 | -2.28 ± 0.27
63 | UACGAGCAAUAUUACGUUCC | -2.83 ± 0.36 | 
64 | GUGCAGCAAUAUUACGGGCG | -1.82 ± 0.092 | -0.512 ± 0.11
65 | GGAUAGCAAUAUUACGCUUU | -2.1 ± 0.16 | -2.16 ± 0.21
66 | GGGGAGCAAUAUUACGACUU | -1.2 ± 0.16 | 0.242 ± 0.22
67 | CAGAAGCAAUAUUACGGCCG | -0.0187 ± 0.082 | -0.102 ± 0.14
68 | ACAAAGCAAUAUUACGAUUG | -2.14 ± 0.069 | -1.55 ± 0.092
69 | AGCUAGCAAUAUUACGGUUC | -3.44 ± 0.28 | -0.512 ± 0.17
70 | GUGCAGCAAUAUUACGGAAU | -2.01 ± 0.073 | -0.012 ± 0.087
71 | UGCCAGCAAUAUUACGGUUG | -1.94 ± 0.096 | -0.692 ± 0.11
72 | CCGGAGCAAUAUUACGGGAG | -3.98 ± 0.27 | -2.13 ± 0.26
73 | CACGAGCAAUAUUACGCCCU | -2.92 ± 0.3 | 
74 | UUCAAGCAAUAUUACGCAGU | -3.44 ± 0.27 | -3.62 ± 0.42
75 | GAUUAGCAAUAUUACGGUCA | -1.38 ± 0.15 | -1.2 ± 0.12

Row | Sequence | self-splicing fitness (ln) (30 °C) | self-splicing fitness (ln) (37 °C)
76 | UGACAGCAAUAUUACGCCGA | -1.44 ± 0.17 | -0.0813 ± 0.17
77 | GAUAAGCAAUAUUACGGCCG | -1.35 ± 0.1 | -0.332 ± 0.15
78 | CGCUAGCAAUAUUACGCAGG | -3.17 ± 0.18 | -1.83 ± 0.23
79 | AGGGAGCAAUAUUACGAUGU | -1.22 ± 0.098 | -2.13 ± 0.19
80 | UGCGAGCAAUAUUACGGCAA | -2.3 ± 0.4 | -0.0535 ± 0.27
81 | GUGAAGCAAUAUUACGAAAC | -1.66 ± 0.11 | -0.943 ± 0.14
82 | GCCUAGCAAUAUUACGAAAA | -3.05 ± 0.33 | -1.04 ± 0.26
83 | CAGAAGCAAUAUUACGUGCA | -2.49 ± 0.14 | -1.75 ± 0.14
84 | CACAAGCAAUAUUACGCCGA | -3.39 ± 0.26 | -0.917 ± 0.15
85 | GUGGAGCAAUAUUACGUCAG |  | -2.43 ± 0.46
86 | AGUGAGCAAUAUUACGGGCU | -4.57 ± 0.39 | -2.72 ± 0.3
87 | CGCAAGCAAUAUUACGGAGC | -2.49 ± 0.17 | -2.24 ± 0.24
88 | CCCAAGCAAUAUUACGGAAG | -2.89 ± 0.16 | -1.48 ± 0.15
89 | UGGGAGCAAUAUUACGCCCA | -1.61 ± 0.4 | 
90 | UAAUAGCAAUAUUACGAGAA |  | -1.22 ± 0.26
91 | UAAUAGCAAUAUUACGCAAG | -1.92 ± 0.29 | -1.04 ± 0.25
92 | AGUAAGCAAUAUUACGCUGU | -2.78 ± 0.22 | -1.88 ± 0.3
93 | CUCGAGCAAUAUUACGAGGU | -3.53 ± 0.24 | -2.58 ± 0.21
94 | GACGAGCAAUAUUACGGGUU | -3.77 ± 0.18 | -2.75 ± 0.21
95 | UGACAGCAAUAUUACGGGCG | -0.223 ± 0.1 | 0.3 ± 0.11
96 | AGUCAGCAAUAUUACGAAUC | -0.727 ± 0.13 | -0.18 ± 0.19
97 | UGAUAGCAAUAUUACGUUAC | -3.01 ± 0.31 | -1.08 ± 0.22
98 | UGGUAGCAAUAUUACGUGUA | -2.09 ± 0.13 | -0.721 ± 0.1
99 | GAGAAGCAAUAUUACGUCCU | -1.59 ± 0.23 | 
100 | CUAUAGCAAUAUUACGCUUG | -2.62 ± 0.25 | -2.14 ± 0.26
